{
  "source": "patent US9828628",
  "key": {"[1]": {"target": "HIV-1 gp41 epitope peptide with linker, conjugated to 17-base DNA (peptide-linker-DNA) and hybridized to the modular oligonucleotide probe (HIV-1)", "assay": "electrochemical modular probe (methylene blue, square wave voltammetry) on a gold electrode, antibody titration in 80% whole blood [panel c (lower]"}, "[2]": {"target": "HIV-1 gp41 epitope peptide with linker, conjugated to 17-base DNA (peptide-linker-DNA) and hybridized to the modular oligonucleotide probe (HIV-1)", "assay": "fluorescent modular DNA probe with two gp41 peptide copies, titrated with antibody; two-state fit"}},
  "data": [
    {"substance": "antibody 2F5 specific for gp41 (Polymun Scientific)", "values": [
      {"measurement": "Kd", "setting": "[1]", "value": 33, "unit": "nM"},
      {"measurement": "Kd", "setting": "[2]", "value": 4, "unit": "nM"}
    ]}
  ]
}
